According to US10350264B2, “Compositions and methods for modulating NCOA4-mediated autophagic targeting of ferritin” (Dana-Farber Cancer Institute, Inc., priority 2014, dated 2019):
“Also recorded” adds a separate entry of the source.

T1: NCOA4(aa 383-522)-GST (Homo sapiens, UniProt Q13772)
T1 construct: NCOA4(aa 383-522)-GST or GST alone was incubated with; made in house; host or cells: E. coli BL21 (DE3)
T1 sequence (Q13772 383-522): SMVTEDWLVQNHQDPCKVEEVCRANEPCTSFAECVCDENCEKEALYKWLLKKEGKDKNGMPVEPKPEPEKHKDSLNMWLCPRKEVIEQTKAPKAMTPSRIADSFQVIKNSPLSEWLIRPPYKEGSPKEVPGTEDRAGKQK

T2: HERC2-FLAG fragment (F3, HERC2 amino acids 1700-2700) (Homo sapiens, UniProt O95714)
T2 construct: HERC2-FLAG fragment (F3, HERC2 amino acids 1700-2700) was produced as described in Bekker-Jensen et al; expressed in transfected cells; host or cells: 293T cells (transient transfection, lysate used)
T2 sequence (O95714 1700-2700): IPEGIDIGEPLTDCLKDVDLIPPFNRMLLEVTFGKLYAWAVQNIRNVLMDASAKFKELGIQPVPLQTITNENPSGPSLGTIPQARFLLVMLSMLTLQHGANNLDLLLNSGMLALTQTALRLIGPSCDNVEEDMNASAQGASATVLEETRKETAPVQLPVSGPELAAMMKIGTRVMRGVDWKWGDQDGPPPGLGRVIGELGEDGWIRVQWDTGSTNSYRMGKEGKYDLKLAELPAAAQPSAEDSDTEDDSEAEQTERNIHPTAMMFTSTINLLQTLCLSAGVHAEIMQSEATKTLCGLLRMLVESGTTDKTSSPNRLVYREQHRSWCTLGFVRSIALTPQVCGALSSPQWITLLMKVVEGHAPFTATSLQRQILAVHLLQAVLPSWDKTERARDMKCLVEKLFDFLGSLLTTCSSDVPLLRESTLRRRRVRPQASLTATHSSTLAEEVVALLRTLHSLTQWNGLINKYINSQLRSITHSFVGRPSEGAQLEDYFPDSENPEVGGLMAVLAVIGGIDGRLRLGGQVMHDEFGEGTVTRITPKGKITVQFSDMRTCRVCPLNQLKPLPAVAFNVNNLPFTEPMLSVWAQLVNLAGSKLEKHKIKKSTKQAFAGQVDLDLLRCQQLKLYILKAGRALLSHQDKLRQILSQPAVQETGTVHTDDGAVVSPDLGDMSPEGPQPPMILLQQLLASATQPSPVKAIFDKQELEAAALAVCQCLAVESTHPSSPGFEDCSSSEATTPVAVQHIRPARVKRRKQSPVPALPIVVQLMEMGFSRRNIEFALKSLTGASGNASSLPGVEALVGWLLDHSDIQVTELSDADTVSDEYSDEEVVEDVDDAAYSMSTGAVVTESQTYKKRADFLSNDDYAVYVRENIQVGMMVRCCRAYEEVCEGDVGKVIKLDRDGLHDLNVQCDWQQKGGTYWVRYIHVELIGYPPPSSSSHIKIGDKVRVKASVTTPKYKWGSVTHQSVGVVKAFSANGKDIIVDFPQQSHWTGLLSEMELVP


Assays:
FTH1 = test: IVT-based interaction experiment with His-GST-HA tagged NCOA4 constructs and GST pull-down; assay type: binding; settings: equal load of fragments; FIG. 9
[1] = target: T3, apo-ferritin purified from equine spleen (Equus caballus, UniProt Q8MIP0); test: GST pull-down assay of ferritin using GST-NCOA4 fragments; assay type: binding; settings: anti-FTH1 immunoblot
T3 construct: apo-ferritin purified from equine spleen; purchased Sigma F4503; host or cells: equine spleen
T3 sequence (Q8MIP0 whole entry, the tested form may be a part): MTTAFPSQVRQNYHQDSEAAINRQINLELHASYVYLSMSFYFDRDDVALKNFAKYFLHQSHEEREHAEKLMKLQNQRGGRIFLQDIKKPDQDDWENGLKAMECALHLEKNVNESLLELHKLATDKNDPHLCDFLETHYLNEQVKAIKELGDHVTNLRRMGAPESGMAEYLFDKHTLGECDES
T3 sequence (P02791 2-175 partner limits assumed): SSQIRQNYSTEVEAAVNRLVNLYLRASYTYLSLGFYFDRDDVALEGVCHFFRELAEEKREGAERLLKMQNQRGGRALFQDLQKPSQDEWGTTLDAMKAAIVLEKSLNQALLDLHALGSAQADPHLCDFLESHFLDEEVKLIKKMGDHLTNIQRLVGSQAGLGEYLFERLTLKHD
Description: GST-tagged NCOA4 constructs were also made to probe the interactions of C-terminal portions of NCOA4 with ferritin. NCOA4-truncation constructs were produced using Gateway cloning (Invitrogen, Life Technologies, catalog #11789-013 and 11791-019) into a pDEST60 N-terminal GST fusion plasmid (GST-NCOA4) from EMD Millipore (Gateway Nova pET-60-DEST, product #71851-3) and transformed in E. coli BL21 (DE3) cells (New England Biosciences, C2527I).
NCOA4 truncation constructs were designed based on NCBI reference sequence: NP_001138735.1 (SEQ ID NO: 4). In particular, fragments of SEQ ID NO: 4 consisting of amino acids (aa) 1-245, aa 235-614, aa 235-560, aa 235-401, aa 383-560, aa 545-614, aa 383-522, aa 510-560, aa 383-436, aa 436-485, aa 475-522, aa 475-500, aa 480-500, aa 480-504, aa 485-509, aa 490-514, aa 495-522 were designed. Protein expression in the DE3 cells was induced with 1 mM isopropyl-beta-D-thiogalactopyranoside (IPTG) (Sigma, I6758-10 G) for 3 hours at 37° C. Cells were collected by centrifugation, re-suspended in 25 mM Tris-HCl (pH 7.4), 10% (w/v) sucrose and lysed with a single freeze-thaw cycle followed by sonication. After centrifugation, a GST pull-down assay was performed.
In the GST pull-down assay, lysates were incubated with 10 μl of a 50% (v/v) slurry of glutathione Sepharose 4B beads (GE Healthcare Lifesciences, 17-0756-01) for 30 minutes at 4° C. Beads were washed thoroughly with 150 mM NaCl, 20 mM Tris (pH 7.4), 2 mM dithiothreitol (DTT), 0.5% (w/v) Nonidet P-40, leaving 50-100 μg of GST-fusion protein bound to the beads. Beads were then mixed with 0.5-2 μg of apo-ferritin purified from equine spleen (Sigma F4503) or recombinant human FTH1 or FTL produced in Rosetta E. coli (EMD Millipore, 70953-3). The assay mix was incubated for 2 hours at 4° C., and beads were washed four times with 1 ml wash buffer. Proteins were eluted with SDS sample buffer and analyzed by 4-20% gradient SDS-PAGE and immunoblotting with anti-FTH1 antibody (as above) or anti-FLAG antibody (Sigma, F1804-200 UG). Pounceau stain was used to visualize GST-NCOA4 bands. (Pounceau, Sigma, P7170-1 L, protocol as per product manual).

8988T cells = test: NCOA4 protein levels while blocking autophagic flux (immunoblot); assay type: cell-based, human; settings: CQ or BAF 8 hours, FIG. 2(c)
PANC1 cells = test: autophagosome formation, fluorescence microscopy of cells expressing GFP-MAP1LC3B; assay type: cell-based, human; settings: Wortmannin 200 nM 1 h, chloroquine 25 μM 4 h, FIG. 13(b)
8988T and U2OS cells = test: chelation assay, ferritin degradation by FTH1 immunoblot; assay type: cell-based, human; settings: FAC loading then chelators (DFO, BPS, DFP); FIG. 3(a)-(b), FIG. 19
Method: Chelation assays were performed similarly to those previously described with slight modifications [Asano et al., supra]. Briefly, U2OS and 8988T cells stably expressing shRNAs as described above (shGFP, shNCOA4-1, shNCOA4-2, selected with puromycin) were plated (2×10^5 cells/well) and cultured for 24 hours in FAC (36 μM or 180 μM). Cells were washed three times with PBS and subjected to iron chelation with the described chelators minus or plus lysosomal protease inhibitors (E-64d and PepstatinA) or the proteasomal inhibitor, Bortezomib. Cells were harvested at the indicated time points, washed with PBS, and lysed in 50 mM Tris-HCl (pH 7.4), 150 mM NaCl, 1% Nonidet P40, 0.1% SDS, 2 mM EDTA, 2 mM DTT, protease inhibitors and analyzed by 4-20% gradient SDS-PAGE followed by immunoblotting with the indicated antibodies. Experiments were performed at a minimum in biological triplicate. Quantitation of Western blots was performed using ImageJ [Schneider, C. A., et al. Nature Methods 9, 671-675 (2012)]. Cells were treated similarly for immunofluorescence experiments (including IMR90 and HPDE cells). Cells plated on glass coverslips were treated as described and fixed with 4% paraformaldehyde prior to immunofluorescence using anti-ferritin and anti-LAMP2. Data were collected as described above.

NCOA4(aa 383-522)-GST = target: T1, NCOA4(aa 383-522)-GST; test: GST pull-down assay of WT and point mutant FTH1 using NCOA4(aa 383-522)-GST; assay type: binding; settings: 40 μg FTH1, InstantBlue stain; FIGS. 23A-D
[2] = target: T2, HERC2-FLAG fragment (F3, HERC2 amino acids 1700-2700); test: GST pull-down assay of HERC2-FLAG Fragment 3 using GST-NCOA4 fragments; assay type: binding; settings: 293T lysate expressing HERC2-FLAG F3, anti-FLAG immunoblot; FIG. 12
Method: To map the interaction of NCOA-4 with HERC2, the GST-NCOA4 truncation constructs described above were also tested in a GST pull-down assay with HERC2-FLAG expressing 293T cell line. HERC2-FLAG fragment (F3, HERC2 amino acids 1700-2700) was produced as described in Bekker-Jensen et al., Nature Cell Biology (2010) 12; 80-86. The HERC2-FLAG F3 was transiently transfected into 293T cells using standard transfection procedures using PEI (Polysciences, #23966-2).
Lysates were obtained, as above, and incubated with 10 μl of a 50% (v/v) slurry of glutathione Sepharose 4B beads for 30 minutes at 4° C. Beads were washed thoroughly with 150 mM NaCl, 20 mM Tris (pH 7.4), 2 mM DTT, 0.5% (w/v) Nonidet P-40, leaving 50-100 μg of GST-fusion protein bound to the beads. Beads were then mixed with 300 μg of lysate from a HERC2-FLAG expressing 293T cell line, as above. The assay mix was incubated for 2 hours at 4° C., and beads were washed four times with 1 ml wash buffer. Proteins were eluted with SDS sample buffer and analyzed by 4-20% gradient SDS-PAGE and immunoblotting with anti-HERC2 antibody or anti-FLAG antibody, as above. Coomassie stain was used to visualize GST-NCOA4 bands as above.

Molecule | pull-down of FTH1 by IVT GST-NCOA4 fragment (FTH1) | binding of GST-NCOA4 fragment to ferritin ([1]; FIGS. 7, 8, 11) | ferritin degradation in response to iron chelation (8988T and U2OS cells) | other results
KAMTPSRIADSFQVIKNSPLSEWLIRPPYKEGSPKEVPGTEDRAGKQK (Homo sapien) [aa 475-522] | equally pulled down (bound to) FTH1 | interacted with ferritin; also recorded: bound to ferritin | – | binding of GST-NCOA4 fragment to ferritin ([1]; FIGS. 7, 8, 11, listed as amino acids 475-522): bind to ferritin
CCN(CC)CCCC(C)Nc1ccnc2cc(Cl)ccc12 (centres unmarked) [chloroquine, Chloroquine] | – | – | – | NCOA4 protein levels (8988T cells): markedly increased; effect on autophagosomes (PANC1 cells): caused accumulation of autophagosomes
5′ CCCAGGAAGTATTACTTAATT 3′ (expressed or natural sequence) [shNCOA4-1] | – | – | rescued ferritin degradation | –
FTH1 R23A point mutant: recombinant human ferritin heavy chain with R23A point mutation, produced in E. coli | – | – | – | binding of FTH1 (WT or point mutant) to NCOA4(383-522)-GST (NCOA4(aa 383-522)-GST): bound only very weakly
5′ GCTGGCAAACAGAAGTTTAAA 3′ (expressed or natural sequence) [shNCOA4-2] | – | – | rescued ferritin degradation | –
aa 383-522: fragment of NCOA4 SEQ ID NO: 4 (protein, GST tag; Homo sapien) SMVTEDWLVQNHQDPCKVEEVCRANEPCTSFAECVCDENCEKEALYKWLLKKEGKDKNGMPVEPKPEPEKHKDSLNMWLCPRKEVIEQTKAPKAMTPSRIADSFQVIKNSPLSEWLIRPPYKEGSPKEVPGTEDRAGKQK | equally pulled down (bound to) FTH1 | bind to ferritin | – | binding of GST-NCOA4 fragment to HERC2-FLAG [2]: bound to HERC2-FLAG
